# From US20030086932A1
# Tests used:
# [1] = molecular target: murine CTLA-4 on murine T cells (murine) (UniProt P09793); assay: cell-based or functional assay
# [2] = molecular target: murine CD28 on murine T cells (murine) (UniProt P31041); assay: cell-based or functional assay
# UniProt P31041, sequence (P31041 20-218): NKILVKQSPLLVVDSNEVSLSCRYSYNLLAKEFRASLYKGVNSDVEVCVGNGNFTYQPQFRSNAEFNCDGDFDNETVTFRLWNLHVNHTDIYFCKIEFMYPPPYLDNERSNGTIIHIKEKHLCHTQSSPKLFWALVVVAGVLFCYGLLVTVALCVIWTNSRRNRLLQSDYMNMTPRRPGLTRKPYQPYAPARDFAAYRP
# UniProt P09793, sequence (P09793 36-223): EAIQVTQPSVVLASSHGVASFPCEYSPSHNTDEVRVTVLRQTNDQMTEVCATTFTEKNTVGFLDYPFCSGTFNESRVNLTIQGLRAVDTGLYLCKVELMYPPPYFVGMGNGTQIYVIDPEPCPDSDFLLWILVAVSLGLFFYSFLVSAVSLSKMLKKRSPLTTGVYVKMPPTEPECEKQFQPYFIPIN
Substance,"reduction in IL-2 production of pre-activated T cells, with combined mem2C11 and memPVIscFvs [1] [%]","reduction in IL-2 production of pre-activated T cells, with mem2C11 scFv alone [1] [%]","reduction in intensity of the tyrosine-phosphorylated LAT band (photodensitometry, against control scFv) [1] [%]","reduction in intensity of the tyrosine-phosphorylated p23 TCR band (photodensitometry, against control scFv) [1] [%]","reduction in proliferation of pre-activated T cells, with combined mem2C11 and memPVIscFvs [1] [%]","reduction in proliferation of pre-activated T cells, with mem2C11 scFv alone [1] [%]",proliferation and cytokine production of pre-activated T cells (increase over mem2C11scFv alone) [2] [fold]
"mem4F10scFv (surface-linked anti-murine CTLA-4 scFv derived from hamster mAb UC10-4F10, anchored by a murine B7-1 derived motif, expressed on transiently transfected 293 cells) (from UniProt Q00609 247-302)",69,67,35,85,66,80,
"memPVIscFv (surface-linked anti-murine CD28 scFv derived from hamster mAb PV-1, GPI anchored, expressed on transiently transfected 293 cells)",,,,,,,10
